The supplement of paper PMC10065799, “High-throughput profiling of sequence recognition by tyrosine kinases and SH2 domains using bacterial peptide display” (eLife, 2023)

Experiments:
Grb2 SH2 = Grb2 SH2 (UniProt P62993); assay: SH2 binding enrichment of the phosphorylated peptide, bacterial display (enrichment ratio); higher = better substrate or ligand; peptides without Tyr show the background
SHP2-C SH2 = assay: as above
c-Src SH2 = assay: as above
EPHB2 = EPHB2 (UniProt P29323); assay: phosphorylation enrichment, bacterial display (enrichment ratio); higher = better substrate or ligand; peptides without Tyr show the background
c-Abl (mouse) = assay: as above
FGFR3 = FGFR3 (UniProt P22607); assay: as above
Fyn = Fyn (UniProt P06241); assay: as above
Jak2 = Jak2 (UniProt O60674); assay: as above
c-Src = assay: as above
FGFR1 = FGFR1 (UniProt P11362); assay: as above
Hck = Hck (UniProt P08631); assay: as above
Fes = Fes (UniProt P07332); assay: as above
AncSZ = assay: as above
Fer (mouse) = assay: as above
EPHB1 = EPHB1 (UniProt P54762); assay: as above
MERTK = MERTK (UniProt Q12866); assay: as above
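Wherever SH2 binding enrichment of the phosphorylated peptide, bacterial display is given: peptide library displayed on the E. coli surface as eCPX fusions, selected cells deep-sequenced, score is each peptide's frequency after selection divided by its frequency in the input.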
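Wherever phosphorylation enrichment, bacterial display is given: 11-residue human phosphosite peptides and single-mutation variants displayed on the E. coli surface, counted by deep sequencing, each peptide's frequency after selection divided by its frequency in the unselected input library; frequency after pTyr selection over input frequency; kinase dosed for 20-30% of maximal phosphorylation in three min.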

EPHB1, sequence (P54762 whole entry, looked up): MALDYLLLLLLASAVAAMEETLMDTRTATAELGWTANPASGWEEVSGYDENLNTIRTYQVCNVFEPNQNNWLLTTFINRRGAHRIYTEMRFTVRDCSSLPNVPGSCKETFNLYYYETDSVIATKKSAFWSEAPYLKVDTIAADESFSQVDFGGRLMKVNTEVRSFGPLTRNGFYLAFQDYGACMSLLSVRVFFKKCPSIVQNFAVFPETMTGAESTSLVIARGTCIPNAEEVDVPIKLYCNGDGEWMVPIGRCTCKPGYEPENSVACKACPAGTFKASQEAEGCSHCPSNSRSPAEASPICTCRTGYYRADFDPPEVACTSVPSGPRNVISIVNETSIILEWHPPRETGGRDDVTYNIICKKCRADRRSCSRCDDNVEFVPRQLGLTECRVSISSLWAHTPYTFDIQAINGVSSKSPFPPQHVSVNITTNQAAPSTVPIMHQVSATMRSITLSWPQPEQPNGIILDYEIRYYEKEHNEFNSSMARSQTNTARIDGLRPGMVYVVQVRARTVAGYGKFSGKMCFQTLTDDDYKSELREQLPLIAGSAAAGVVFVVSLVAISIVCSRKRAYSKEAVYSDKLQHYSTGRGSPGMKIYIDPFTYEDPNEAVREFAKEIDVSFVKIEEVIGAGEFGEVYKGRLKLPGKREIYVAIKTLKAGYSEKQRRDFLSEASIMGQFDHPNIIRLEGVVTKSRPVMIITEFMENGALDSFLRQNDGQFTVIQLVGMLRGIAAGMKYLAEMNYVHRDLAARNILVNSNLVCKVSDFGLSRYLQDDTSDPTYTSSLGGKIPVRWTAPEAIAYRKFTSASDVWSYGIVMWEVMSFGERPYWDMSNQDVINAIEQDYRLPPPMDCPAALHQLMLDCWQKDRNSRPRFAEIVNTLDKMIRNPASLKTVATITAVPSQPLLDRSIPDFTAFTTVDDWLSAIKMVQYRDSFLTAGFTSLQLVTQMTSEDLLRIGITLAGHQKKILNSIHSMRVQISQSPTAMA
FGFR3, sequence (P22607 whole entry, looked up): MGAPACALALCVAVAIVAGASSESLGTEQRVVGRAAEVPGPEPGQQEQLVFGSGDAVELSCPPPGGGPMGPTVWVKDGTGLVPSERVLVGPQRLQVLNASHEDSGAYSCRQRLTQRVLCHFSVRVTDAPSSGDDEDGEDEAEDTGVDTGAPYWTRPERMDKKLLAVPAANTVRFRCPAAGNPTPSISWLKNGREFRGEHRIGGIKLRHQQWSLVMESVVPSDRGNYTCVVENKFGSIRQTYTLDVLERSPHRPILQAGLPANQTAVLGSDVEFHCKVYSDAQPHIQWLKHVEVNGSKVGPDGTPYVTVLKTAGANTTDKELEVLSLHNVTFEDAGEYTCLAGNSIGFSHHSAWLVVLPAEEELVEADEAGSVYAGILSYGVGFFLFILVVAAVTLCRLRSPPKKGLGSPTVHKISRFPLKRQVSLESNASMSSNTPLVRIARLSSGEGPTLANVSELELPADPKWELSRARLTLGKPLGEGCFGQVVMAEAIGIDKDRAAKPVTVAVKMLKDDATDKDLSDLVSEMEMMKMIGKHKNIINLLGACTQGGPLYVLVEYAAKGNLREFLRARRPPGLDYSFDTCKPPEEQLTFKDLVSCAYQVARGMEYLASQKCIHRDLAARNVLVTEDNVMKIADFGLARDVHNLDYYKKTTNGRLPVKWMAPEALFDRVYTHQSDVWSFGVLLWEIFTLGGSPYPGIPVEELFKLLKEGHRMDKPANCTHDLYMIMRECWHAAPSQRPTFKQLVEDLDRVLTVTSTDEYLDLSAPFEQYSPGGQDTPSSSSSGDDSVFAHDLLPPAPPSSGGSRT
Jak2, sequence (O60674 whole entry, looked up): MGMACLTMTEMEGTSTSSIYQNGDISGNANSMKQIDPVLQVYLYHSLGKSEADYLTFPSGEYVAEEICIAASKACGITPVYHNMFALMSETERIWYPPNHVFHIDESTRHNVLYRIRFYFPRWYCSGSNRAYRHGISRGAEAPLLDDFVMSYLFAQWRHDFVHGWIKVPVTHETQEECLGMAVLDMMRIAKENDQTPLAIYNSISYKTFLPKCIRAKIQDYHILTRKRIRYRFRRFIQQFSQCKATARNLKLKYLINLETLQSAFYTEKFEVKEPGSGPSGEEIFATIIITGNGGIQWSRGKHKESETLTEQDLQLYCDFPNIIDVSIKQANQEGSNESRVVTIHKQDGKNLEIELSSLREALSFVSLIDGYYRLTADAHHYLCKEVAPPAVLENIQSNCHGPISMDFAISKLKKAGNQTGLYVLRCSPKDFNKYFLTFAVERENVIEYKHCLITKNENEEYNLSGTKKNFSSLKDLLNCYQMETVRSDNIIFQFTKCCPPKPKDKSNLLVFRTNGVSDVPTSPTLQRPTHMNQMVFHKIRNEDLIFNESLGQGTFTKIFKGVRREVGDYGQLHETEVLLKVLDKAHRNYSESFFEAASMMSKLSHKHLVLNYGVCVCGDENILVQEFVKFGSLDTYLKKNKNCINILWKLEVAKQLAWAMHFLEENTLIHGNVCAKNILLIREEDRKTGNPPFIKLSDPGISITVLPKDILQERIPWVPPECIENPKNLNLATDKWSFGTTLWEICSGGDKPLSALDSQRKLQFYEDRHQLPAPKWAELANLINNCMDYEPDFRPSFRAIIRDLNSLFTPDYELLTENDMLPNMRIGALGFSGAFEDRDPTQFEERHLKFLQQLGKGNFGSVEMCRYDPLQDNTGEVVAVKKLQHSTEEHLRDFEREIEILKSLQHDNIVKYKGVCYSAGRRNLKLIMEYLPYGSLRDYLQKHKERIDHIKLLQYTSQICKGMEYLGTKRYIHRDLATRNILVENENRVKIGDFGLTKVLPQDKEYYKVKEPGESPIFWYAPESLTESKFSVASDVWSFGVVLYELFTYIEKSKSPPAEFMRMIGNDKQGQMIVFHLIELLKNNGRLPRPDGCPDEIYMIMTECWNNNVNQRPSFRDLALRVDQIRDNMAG
Grb2 SH2, sequence (P62993 whole entry, looked up): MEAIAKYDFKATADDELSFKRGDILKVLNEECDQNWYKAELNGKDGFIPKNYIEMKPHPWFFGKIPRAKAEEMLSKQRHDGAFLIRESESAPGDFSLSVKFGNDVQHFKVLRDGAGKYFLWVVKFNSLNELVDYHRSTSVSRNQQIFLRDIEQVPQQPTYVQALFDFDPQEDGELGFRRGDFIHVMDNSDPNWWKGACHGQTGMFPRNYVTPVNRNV
MERTK, sequence (Q12866 whole entry, looked up, the tested form may be a part): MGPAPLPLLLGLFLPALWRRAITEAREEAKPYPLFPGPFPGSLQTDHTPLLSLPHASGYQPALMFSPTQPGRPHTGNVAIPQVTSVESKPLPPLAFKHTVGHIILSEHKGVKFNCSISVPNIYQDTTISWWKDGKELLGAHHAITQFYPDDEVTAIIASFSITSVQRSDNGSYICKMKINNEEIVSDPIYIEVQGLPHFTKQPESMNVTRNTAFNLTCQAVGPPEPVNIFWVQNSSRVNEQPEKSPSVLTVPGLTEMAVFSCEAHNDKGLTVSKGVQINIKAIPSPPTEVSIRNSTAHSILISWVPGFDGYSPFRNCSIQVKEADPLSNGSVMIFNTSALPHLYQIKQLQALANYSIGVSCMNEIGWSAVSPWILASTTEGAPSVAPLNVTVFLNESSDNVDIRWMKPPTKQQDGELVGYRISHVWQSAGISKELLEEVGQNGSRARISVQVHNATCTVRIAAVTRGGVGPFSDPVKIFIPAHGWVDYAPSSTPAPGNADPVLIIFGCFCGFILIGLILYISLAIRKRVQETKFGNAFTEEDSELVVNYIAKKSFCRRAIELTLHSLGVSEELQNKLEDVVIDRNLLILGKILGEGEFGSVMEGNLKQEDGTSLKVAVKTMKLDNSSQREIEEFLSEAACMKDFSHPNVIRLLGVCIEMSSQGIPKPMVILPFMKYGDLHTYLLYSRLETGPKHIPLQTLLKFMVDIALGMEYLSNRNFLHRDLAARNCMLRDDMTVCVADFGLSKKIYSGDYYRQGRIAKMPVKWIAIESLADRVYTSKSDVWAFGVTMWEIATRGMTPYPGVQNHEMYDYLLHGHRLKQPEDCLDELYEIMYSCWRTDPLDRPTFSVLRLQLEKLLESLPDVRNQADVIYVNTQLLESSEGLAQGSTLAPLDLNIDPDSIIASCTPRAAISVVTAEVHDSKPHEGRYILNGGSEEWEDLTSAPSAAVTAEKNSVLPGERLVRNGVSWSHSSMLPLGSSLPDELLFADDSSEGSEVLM
Fes, sequence (P07332 whole entry, looked up): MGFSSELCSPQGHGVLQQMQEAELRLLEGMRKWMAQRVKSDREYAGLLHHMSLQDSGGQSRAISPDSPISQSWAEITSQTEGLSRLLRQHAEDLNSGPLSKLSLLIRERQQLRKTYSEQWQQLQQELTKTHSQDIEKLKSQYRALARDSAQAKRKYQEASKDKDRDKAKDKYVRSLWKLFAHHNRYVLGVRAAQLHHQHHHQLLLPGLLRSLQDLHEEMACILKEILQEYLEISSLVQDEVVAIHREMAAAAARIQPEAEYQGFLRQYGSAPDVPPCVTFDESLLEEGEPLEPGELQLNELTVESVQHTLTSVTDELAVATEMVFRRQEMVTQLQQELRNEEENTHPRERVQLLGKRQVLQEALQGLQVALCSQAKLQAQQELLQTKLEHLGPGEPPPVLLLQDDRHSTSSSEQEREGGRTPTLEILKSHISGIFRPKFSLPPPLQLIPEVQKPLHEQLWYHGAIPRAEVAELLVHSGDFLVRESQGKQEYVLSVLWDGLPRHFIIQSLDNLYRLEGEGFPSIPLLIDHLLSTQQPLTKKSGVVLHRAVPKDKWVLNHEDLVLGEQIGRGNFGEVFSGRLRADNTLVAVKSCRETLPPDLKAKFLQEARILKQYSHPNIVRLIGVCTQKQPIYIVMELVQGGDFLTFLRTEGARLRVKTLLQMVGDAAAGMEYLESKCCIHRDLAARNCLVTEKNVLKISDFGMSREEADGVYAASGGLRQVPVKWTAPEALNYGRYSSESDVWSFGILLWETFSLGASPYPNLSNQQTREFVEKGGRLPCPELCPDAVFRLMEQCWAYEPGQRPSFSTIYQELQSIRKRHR

| Sequence | SH2 binding enrichment (Grb2 SH2) | SH2 binding enrichment (SHP2-C SH2) | SH2 binding enrichment (c-Src SH2) | phosphorylation enrichment (EPHB2) | phosphorylation enrichment (c-Abl (mouse)) | phosphorylation enrichment (FGFR3) | phosphorylation enrichment (Fyn) | phosphorylation enrichment (Jak2) | phosphorylation enrichment (c-Src) | phosphorylation enrichment (FGFR1) | phosphorylation enrichment (Hck) | phosphorylation enrichment (Fes) | phosphorylation enrichment (AncSZ) | phosphorylation enrichment (Fer (mouse)) | phosphorylation enrichment (EPHB1) | phosphorylation enrichment (MERTK) |
| --- | --- | --- | --- | --- | --- | --- | --- | --- | --- | --- | --- | --- | --- | --- | --- | --- |
| MHDSNCVSKGS [PDGFRA_Y849_Y849C] | 0.86 | 0.609 | 0.572 | 0.367 | 0.559 | 0.485 | 0.387 | 0.683 | 0.414 | 0.456 | 0.456 | 0.72 | 0.57 | 0.388 | 0.396 | 0.384 |
| MIAIRYSHSRR [ACOXL_Y260_T255M] | 0.959 | 0.652 | 0.56 | 0.465 | 0.473 | 0.518 | 0.444 | 0.434 | 0.426 | 0.377 | 0.43 | 0.487 | 0.875 | 0.324 | 0.539 | 0.353 |
| MILSAYALGGL [CPS1_Y590_R587L] | 0.835 | 0.794 | 0.708 | 0.562 | 0.736 | 0.675 | 0.458 | 0.928 | 0.584 | 0.431 | 0.497 | 1 | 0.894 | 0.552 | 0.655 | 0.436 |
| MKALGYFAVGT [OPA1_Y498_V502G] | 0.831 | 0.545 | 0.543 | 0.486 | 0.7 | 0.64 | 0.432 | 1.92 | 0.487 | 0.479 | 0.489 | 0.973 | 0.798 | 0.395 | 0.469 | 0.355 |
| MKDLTYSSLCF [ALOX5_Y446_A447S] | 0.756 | 0.617 | 0.555 | 2.67 | 1.53 | 1.14 | 6.62 | 1.21 | 5.91 | 0.997 | 6.78 | 1.35 | 1.48 | 3.84 | 2.89 | 4.91 |
| MKGEFYRFLAE [YWHAG_Y131_D129E_YF] | 0.712 | 0.464 | 0.351 | 0.455 | 0.627 | 0.529 | 0.392 | 0.907 | 0.382 | 0.336 | 0.414 | 0.902 | 0.77 | 0.4 | 0.426 | 0.372 |
| MKVPLYETPAG [PGM5_Y358_V357L] | 1.01 | 1.69 | 1.08 | 27.8 | 11.2 | 0.632 | 1.82 | 0.767 | 1.81 | 0.52 | 6.03 | 1.06 | 1.64 | 16.7 | 19.4 | 9.79 |
| MLNTNYHLPPS [MT-ATP8_Y33] | 1 | 0.67 | 0.515 | 0.514 | 0.556 | 2.43 | 0.384 | 0.502 | 0.354 | 3.4 | 0.297 | 0.526 | 0.705 | 0.327 | 0.617 | 0.757 |
| MRNDLYQTPLH [NFKB1_Y582] | 0.697 | 0.55 | 0.381 | 2.44 | 5.88 | 0.57 | 1.8 | 0.693 | 1.94 | 0.454 | 4.21 | 0.845 | 1.69 | 4.12 | 1.19 | 2.62 |
| MSRDVYSTDFF [NTRK2_Y702_YF] | 0.835 | 0.659 | 0.516 | 0.774 | 0.568 | 0.718 | 2.65 | 0.728 | 2.73 | 1.06 | 1.28 | 0.732 | 0.691 | 0.486 | 0.756 | 5.05 |
| MSSLFYANALF [HOXB7_Y6_T9A_YF] | 1.25 | 0.64 | 0.693 | 0.755 | 0.696 | 0.743 | 0.762 | 1.24 | 0.975 | 0.58 | 0.705 | 1.21 | 0.975 | 1.78 | 0.764 | 1.29 |
| MTKEQYIKMNR [ARFGEF2_Y797] | 0.823 | 0.672 | 0.454 | 0.357 | 0.335 | 0.445 | 0.397 | 0.563 | 0.369 | 0.458 | 0.407 | 0.558 | 0.595 | 0.346 | 0.365 | 0.348 |
| NARGLYFKLHN [GATA2_Y376_C373R_YF] | 0.988 | 0.88 | 0.624 | 0.634 | 0.896 | 0.87 | 0.487 | 1.67 | 0.542 | 0.554 | 0.53 | 1.34 | 1.51 | 0.657 | 0.622 | 0.476 |
| NFRNTYVNANE [KCNH2_Y475_T473N] | 29.8 | 1.55 | 2.64 | 0.395 | 0.467 | 0.474 | 0.404 | 0.577 | 0.424 | 0.434 | 0.466 | 0.677 | 0.559 | 0.358 | 0.373 | 0.404 |
| NGLVACKDGKL [PMM2_Y76_Y76C] | 0.969 | 0.893 | 0.541 | 0.524 | 0.401 | 0.484 | 0.416 | 0.435 | 0.387 | 0.392 | 0.401 | 0.43 | 0.486 | 0.419 | 0.397 | 0.367 |
| NGLVAYKDGKL [PMM2_Y76] | 0.917 | 0.669 | 0.436 | 0.403 | 0.427 | 0.448 | 0.305 | 0.528 | 0.423 | 0.431 | 0.372 | 0.612 | 0.602 | 0.457 | 0.341 | 0.429 |
| NHFKIYNLCAE [PTEN_Y68_YF] | 0.967 | 0.825 | 0.974 | 0.516 | 0.52 | 0.647 | 2.61 | 0.577 | 3.12 | 0.676 | 1.12 | 0.766 | 0.882 | 0.535 | 0.412 | 0.584 |

| Sequence | SH2 binding enrichment (Grb2 SH2) | SH2 binding enrichment (SHP2-C SH2) | SH2 binding enrichment (c-Src SH2) | phosphorylation enrichment (EPHB2) | phosphorylation enrichment (c-Abl (mouse)) | phosphorylation enrichment (FGFR3) | phosphorylation enrichment (Fyn) | phosphorylation enrichment (Jak2) | phosphorylation enrichment (c-Src) | phosphorylation enrichment (FGFR1) | phosphorylation enrichment (Hck) | phosphorylation enrichment (Fes) | phosphorylation enrichment (AncSZ) | phosphorylation enrichment (Fer (mouse)) | phosphorylation enrichment (EPHB1) | phosphorylation enrichment (MERTK) |
| --- | --- | --- | --- | --- | --- | --- | --- | --- | --- | --- | --- | --- | --- | --- | --- | --- |
| NIISFYLSRDP [CTSD_Y232_F229I] | 1.59 | 1.41 | 1.11 | 0.498 | 0.655 | 0.773 | 0.446 | 0.958 | 0.346 | 0.516 | 0.451 | 1.27 | 1.18 | 0.43 | 0.529 | 0.36 |
| NKFVAYIESQG [KDM4B_Y34_YF] | 0.968 | 0.801 | 0.565 | 0.553 | 0.611 | 0.663 | 0.49 | 0.836 | 0.452 | 0.491 | 0.494 | 1.12 | 0.899 | 0.481 | 0.526 | 0.459 |
| NKYVAYIESQG [KDM4B_Y34] | 0.755 | 1.51 | 0.676 | 0.472 | 0.692 | 0.625 | 0.407 | 0.827 | 0.437 | 0.567 | 0.413 | 0.885 | 0.893 | 0.422 | 0.554 | 0.449 |
| NLAAQYTTVGR [SGSH_Y240_D235N] | 0.655 | 1.92 | 4.5 | 0.312 | 0.416 | 0.375 | 0.401 | 0.414 | 0.494 | 0.376 | 0.568 | 0.489 | 0.444 | 0.36 | 0.304 | 0.438 |
| NLMPAYHKCIQ [CYP21A2_Y190_Y191H] | 0.878 | 0.5 | 0.65 | 0.586 | 0.71 | 0.707 | 0.519 | 0.969 | 0.501 | 0.493 | 0.521 | 1.01 | 0.91 | 0.507 | 0.501 | 0.518 |
| NNKKDYFDMFE [SLC26A3_Y526_K521N_YF] | 0.707 | 0.479 | 0.518 | 0.791 | 0.723 | 3.74 | 0.415 | 0.991 | 0.488 | 5.31 | 0.504 | 1.16 | 1.08 | 0.485 | 1.12 | 0.46 |
| NQDRTYYESVR [SPEN_Y632] | 0.924 | 0.963 | 5 | 0.661 | 0.787 | 0.828 | 1.4 | 0.762 | 2 | 1.02 | 2.05 | 0.819 | 0.897 | 0.993 | 0.569 | 1.02 |
| NQELIYEGQRL [TBK1_Y354_R357Q] | 0.537 | 0.709 | 0.352 | 1.11 | 2.65 | 0.739 | 7.4 | 0.956 | 6.85 | 0.628 | 7.73 | 1.42 | 1.71 | 11.6 | 1 | 1.52 |
| NQNIGYELGHR [KCNN3_Y268_K269E] | 0.892 | 0.683 | 0.672 | 0.318 | 0.425 | 0.403 | 0.528 | 0.348 | 0.305 | 0.343 | 0.37 | 0.486 | 0.496 | 0.289 | 0.449 | 0.276 |
| NRVEIYEKTVE [CYFIP1_Y108] | 0.803 | 0.85 | 0.678 | 0.654 | 0.919 | 0.696 | 0.511 | 1.27 | 0.599 | 0.523 | 0.628 | 1.18 | 1.07 | 0.582 | 0.713 | 0.5 |
| NTFEKYWPFFQ [GATM_Y103_YF] | 1.5 | 1.24 | 0.926 | 0.512 | 0.795 | 1.08 | 0.69 | 0.898 | 0.935 | 1.08 | 1.42 | 1.09 | 0.987 | 0.429 | 0.488 | 0.886 |
| NTVLGYFIGRI [GARS1_Y408] | 1.14 | 1.08 | 0.637 | 0.44 | 0.634 | 0.617 | 0.427 | 0.735 | 0.348 | 0.443 | 0.495 | 1.09 | 0.973 | 0.479 | 0.48 | 0.423 |
| NVQIVYKPVDL [MAPT_Y627_S622N] | 0.982 | 0.738 | 0.58 | 0.492 | 0.723 | 0.648 | 0.414 | 0.796 | 0.415 | 0.532 | 0.477 | 0.903 | 0.955 | 0.502 | 0.507 | 0.354 |
| NWGSPYKSNGC [ZNF347_Y261] | 0.819 | 0.725 | 0.586 | 0.569 | 0.667 | 0.546 | 0.373 | 0.759 | 0.52 | 0.48 | 0.52 | 1.09 | 0.894 | 0.48 | 0.459 | 0.41 |
| PATINYPFEKG [NDUFS8_Y84] | 1.09 | 0.587 | 0.663 | 0.218 | 0.491 | 0.565 | 1.04 | 0.776 | 0.674 | 0.521 | 0.342 | 1.18 | 0.88 | 0.595 | 0.65 | 0.556 |
| PEADKYHLTFA [FGG_Y300_R301H_YF] | 0.637 | 0.254 | 0.301 | 0.788 | 2.22 | 1.5 | 0.73 | 1.98 | 1.03 | 0.725 | 0.939 | 1.8 | 1.88 | 0.802 | 2.12 | 0.75 |
